According to patent US20160169873A1:

Legend:
[1] = target: glycoprotein on Barrett's esophagus derived CP-D (CP-18821) cells; assay: cell edge tracking (mechanical deformation) by phase contrast microscopy on fixed CP-D cells, 5 ug/ml WGA, first order kinetics fit
[2] = target: glycoprotein on Barrett's esophagus derived CP-D (CP-18821) cells; assay: cell edge tracking (mechanical deformation) by phase contrast microscopy on fixed CP-D cells, 20 ug/ml WGA, first order kinetics fit
[3] = target: SHEP1 cell (surface binding partners of WGA not named); assay: z-modulation FFT microscopy on a fixed SHEP1 cell, 10, 20 and 50 µg/ml WGA, first order kinetic model fit

Kd [1]: 14 nM
koff [1]: 0.00156 s⁻¹
kon [1]: 109000 M⁻¹ s⁻¹
Kd [2]: 21 nM
koff [2]: 0.0029 s⁻¹
kon [2]: 140000 M⁻¹ s⁻¹
Kd [3]: 125 nM
koff [3]: 0.013 s⁻¹
kon [3]: 14000 M⁻¹ s⁻¹
Substance: Wheat germ agglutinin (WGA) (from UniProt P10968 27-197)
